# Test system: Escherichia coli TOP10
# Experiment: shrunken log2 fold change of peptide-encoding DNA abundance (4.5 h post-induction vs induction); higher = less antimicrobial activity (less host growth inhibition)
# Conditions: time post-induction: 4.5 h; library: site-saturation at positions 5, 18, 19, 20
# 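Also: peptides expressed intracellularly from a pBAD plasmid library in pooled LB shake-flask culture, induced with 0.3% L-arabinose, DNA abundance read by NGS, three biological replicates, DESeq2 with apeglm shrinkage.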
row,Sequence,shrunken log2 fold change
1,RRIRPRPPRLPRPRPRPIISPRP,-0.189
2,RRIRMRPPRLPRPRPRPKAIPRP,0.417
3,RRIRHRPPRLPRPRPRPRIRPRP,-0.00948
4,RRIRDRPPRLPRPRPRPFADPRP,-0.0225
5,RRIRYRPPRLPRPRPRPSEEPRP,-0.111
6,RRIRERPPRLPRPRPRPNKSPRP,-0.369
7,RRIRFRPPRLPRPRPRPRYIPRP,-0.392
8,RRIRIRPPRLPRPRPRPEQTPRP,0.0649
9,RRIRVRPPRLPRPRPRPASKPRP,-0.0732
10,RRIRKRPPRLPRPRPRPVEDPRP,-0.000777
11,RRIRNRPPRLPRPRPRPPCPPRP,0.309
12,RRIRERPPRLPRPRPRPDACPRP,-0.0198
13,RRIRGRPPRLPRPRPRPCIAPRP,0.797
14,RRIRQRPPRLPRPRPRPTRFPRP,0.04
15,RRIRMRPPRLPRPRPRPYQNPRP,0.0826
16,RRIRIRPPRLPRPRPRPDLNPRP,-0.211
17,RRIRVRPPRLPRPRPRPFFEPRP,0.142
18,RRIRNRPPRLPRPRPRPYWMPRP,-0.26
19,RRIRNRPPRLPRPRPRPTYWPRP,-0.101
20,RRIRERPPRLPRPRPRPTKNPRP,-0.187
21,RRIRERPPRLPRPRPRPEMEPRP,-0.0231
22,RRIRCRPPRLPRPRPRPQRDPRP,-0.304

row,Sequence,shrunken log2 fold change
1,RRIRLRPPRLPRPRPRPGENPRP,-0.00192
2,RRIRSRPPRLPRPRPRPVKVPRP,0.0828
3,RRIRIRPPRLPRPRPRPMALPRP,-0.581
4,RRIRCRPPRLPRPRPRPNQVPRP,0.017
5,RRIRARPPRLPRPRPRPSDEPRP,0.324
6,RRIRDRPPRLPRPRPRPAWDPRP,0.4
7,RRIRRRPPRLPRPRPRPNYIPRP,-0.237
8,RRIRRRPPRLPRPRPRPLQHPRP,0.387
9,RRIRPRPPRLPRPRPRPQWNPRP,0.36
10,RRIRSRPPRLPRPRPRPRFNPRP,-0.153
11,RRIRFRPPRLPRPRPRPRIMPRP,-0.624
12,RRIRERPPRLPRPRPRPYTWPRP,-0.161
13,RRIRFRPPRLPRPRPRPHHPPRP,-0.374
14,RRIRHRPPRLPRPRPRPRNCPRP,-0.112
15,RRIRNRPPRLPRPRPRPGPRPRP,0.641
16,RRIRCRPPRLPRPRPRPMSMPRP,-0.212
17,RRIRTRPPRLPRPRPRPHYGPRP,-0.0891
18,RRIRLRPPRLPRPRPRPTHCPRP,-0.0342
19,RRIRHRPPRLPRPRPRPPCQPRP,0.0503
20,RRIRPRPPRLPRPRPRPSSAPRP,0.0846
21,RRIRHRPPRLPRPRPRPIDRPRP,-0.263
22,RRIRDRPPRLPRPRPRPTSHPRP,-0.146

row,Sequence,shrunken log2 fold change
1,RRIRKRPPRLPRPRPRPFKVPRP,-0.0542
2,RRIRNRPPRLPRPRPRPMKAPRP,-0.158
3,RRIRHRPPRLPRPRPRPNPRPRP,-0.0621
4,RRIRDRPPRLPRPRPRPDPEPRP,0.0311
5,RRIRARPPRLPRPRPRPKILPRP,-0.168
6,RRIRHRPPRLPRPRPRPFGRPRP,-0.0135
7,RRIRTRPPRLPRPRPRPGWLPRP,0.445
8,RRIRHRPPRLPRPRPRPLHDPRP,-0.277
9,RRIRWRPPRLPRPRPRPSWGPRP,0.121
10,RRIRVRPPRLPRPRPRPLLSPRP,-0.08
11,RRIRKRPPRLPRPRPRPRLTPRP,0.501
12,RRIRQRPPRLPRPRPRPNADPRP,0.00101
13,RRIRARPPRLPRPRPRPNIGPRP,-0.0734
14,RRIRQRPPRLPRPRPRPWSRPRP,0.00812
15,RRIRSRPPRLPRPRPRPWDFPRP,-0.224
16,RRIRLRPPRLPRPRPRPDSEPRP,0.482
17,RRIRSRPPRLPRPRPRPTYEPRP,-0.328
18,RRIRCRPPRLPRPRPRPFPEPRP,-0.312
19,RRIRIRPPRLPRPRPRPRQPPRP,-0.0694
20,RRIRGRPPRLPRPRPRPSKRPRP,0.231
21,RRIRCRPPRLPRPRPRPGVKPRP,-0.0157
22,RRIRHRPPRLPRPRPRPPWPPRP,0.504

row,Sequence,shrunken log2 fold change
1,RRIRRRPPRLPRPRPRPAGWPRP,0.593
2,RRIRIRPPRLPRPRPRPSHLPRP,-0.622
3,RRIRSRPPRLPRPRPRPDSCPRP,-0.0234
4,RRIRPRPPRLPRPRPRPMLLPRP,0.0229
5,RRIRLRPPRLPRPRPRPCHDPRP,-0.116
6,RRIRQRPPRLPRPRPRPLMTPRP,0.0563
7,RRIRERPPRLPRPRPRPDAKPRP,0.0113
8,RRIRTRPPRLPRPRPRPHKCPRP,0.215
9,RRIRVRPPRLPRPRPRPATAPRP,0.18
10,RRIRTRPPRLPRPRPRPCFSPRP,-0.3
11,RRIRWRPPRLPRPRPRPSRGPRP,0.532
12,RRIRVRPPRLPRPRPRPWNMPRP,-0.192
13,RRIRGRPPRLPRPRPRPQIIPRP,0.203
14,RRIRARPPRLPRPRPRPLEIPRP,0.0728
15,RRIRIRPPRLPRPRPRPYSEPRP,-0.535
16,RRIRSRPPRLPRPRPRPGLHPRP,0.186
17,RRIRHRPPRLPRPRPRPQVSPRP,-0.00697
18,RRIRGRPPRLPRPRPRPTETPRP,0.559
19,RRIRHRPPRLPRPRPRPRILPRP,0.091
20,RRIRYRPPRLPRPRPRPHWQPRP,-0.0696
21,RRIRKRPPRLPRPRPRPCMVPRP,0.309
22,RRIRHRPPRLPRPRPRPAPAPRP,0.289

row,Sequence,shrunken log2 fold change
1,RRIRWRPPRLPRPRPRPYTNPRP,-0.993
2,RRIRDRPPRLPRPRPRPVYWPRP,-0.469
3,RRIRHRPPRLPRPRPRPTAHPRP,-0.173
4,RRIRMRPPRLPRPRPRPFGEPRP,0.0461
5,RRIRLRPPRLPRPRPRPCYDPRP,0.00693
6,RRIRPRPPRLPRPRPRPVKYPRP,-0.303
7,RRIRARPPRLPRPRPRPLITPRP,0.305
8,RRIRYRPPRLPRPRPRPMVMPRP,-0.0337
9,RRIRKRPPRLPRPRPRPSWNPRP,-0.15
10,RRIRDRPPRLPRPRPRPHNTPRP,-0.531
11,RRIRKRPPRLPRPRPRPEVKPRP,0.085
12,RRIRTRPPRLPRPRPRPSRGPRP,0.178
13,RRIRHRPPRLPRPRPRPRAMPRP,0.592
14,RRIRYRPPRLPRPRPRPKDPPRP,-0.236
15,RRIRLRPPRLPRPRPRPPWCPRP,0.402
16,RRIRIRPPRLPRPRPRPTPTPRP,0.387
17,RRIRFRPPRLPRPRPRPHFTPRP,-0.489
18,RRIRMRPPRLPRPRPRPCPHPRP,0.0961
19,RRIRTRPPRLPRPRPRPSDEPRP,-0.516
20,RRIRYRPPRLPRPRPRPMIHPRP,-0.0658
21,RRIRFRPPRLPRPRPRPGSPPRP,0.206

# Source: the supplement of paper PMC9112550, “Optimization of the antimicrobial peptide Bac7 by deep mutational scanning” (BMC Biology, 2022)
